Where no end group is shown, it is not given here.
Experiments:
[1] = target: CD89 (Fc receptor for IgA) on polymorphonuclear cells (human, UniProt P24071 22-287); experiment: cell-based or functional assay
[2] = target: IgA (monomeric serum IgA, coated on beads or plates) (human, UniProt P01876-1 1-353); experiment: cell-based or functional assay
Sequence of IgA (monomeric serum IgA, coated on beads or plates) (P01876 other isoform, or with tags, fused parts or gaps): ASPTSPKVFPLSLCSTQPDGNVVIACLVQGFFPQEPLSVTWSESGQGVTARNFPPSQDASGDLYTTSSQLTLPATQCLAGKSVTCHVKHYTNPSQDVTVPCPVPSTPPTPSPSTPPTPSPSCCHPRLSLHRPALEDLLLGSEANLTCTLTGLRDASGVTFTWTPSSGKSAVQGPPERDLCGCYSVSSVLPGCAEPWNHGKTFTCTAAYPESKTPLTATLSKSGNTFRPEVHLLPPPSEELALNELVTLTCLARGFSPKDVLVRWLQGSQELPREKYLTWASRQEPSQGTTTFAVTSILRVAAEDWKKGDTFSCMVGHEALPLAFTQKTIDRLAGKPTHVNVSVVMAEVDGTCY

Sequence of CD89 (Fc receptor for IgA) on polymorphonuclear cells (P24071 22-287): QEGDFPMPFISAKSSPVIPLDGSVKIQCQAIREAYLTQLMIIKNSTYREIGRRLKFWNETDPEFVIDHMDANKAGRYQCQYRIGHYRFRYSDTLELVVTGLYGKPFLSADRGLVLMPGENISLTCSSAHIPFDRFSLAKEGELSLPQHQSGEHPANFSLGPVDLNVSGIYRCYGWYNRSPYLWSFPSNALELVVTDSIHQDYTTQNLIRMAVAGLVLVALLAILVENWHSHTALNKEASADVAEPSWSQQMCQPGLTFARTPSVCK

Binder: CSMVGHEALPLAFTQKC-NH2 (cysteine pairing not given here) [peptide PEO-47 mP2#2,3]
- percentage blocking (polymorphonuclear cells bound to IgA-coated beads, 2-D migration assay) [1]: ≤ 20%

Binder: HEALPLAFTQK-NH2 [peptide IgA CH3]
- percentage blocking (polymorphonuclear cells bound to IgA-coated beads, 2-D migration assay) [1]: ≤ 18%

Binder: REIGRRLKFWNETDP [Peptide Fc alpha 113]
- percentage blocking (polymorphonuclear cells bound to IgA-coated beads, 2-D migration assay) [2]: ≤ 19%
